As usually defined, the EC50 is the midpoint of the concentration-response curve.

For test [1], the target named is T1, human LILRB1 on cells (human, UniProt Q8NHL6 24-650).
T1 construct: whole, on cells; also called hLILRB1; LILRB1-expressing 721.221 cells
Nature of the test: flow cytometry, AF647-labelled antibody at 10 µg/mL on human PBMC, gate: CD56dim CD16+ NK cells (LILRB1-expressing subset per paragraph 345). The method, then: To further characterize the binding of LILRB2/1 antibodies to LILRB1 expressing immune cell subsets (namely, B, T, and NK cells), binding assays were performed with primary human PBMCs. Single cell suspensions of peripheral blood mononuclear cells (PBMCs) from healthy donors were seeded at 0.5 million per well in 96-well plates (Thermo Fisher, No. 249946). PBMCs were blocked with 0.5 mg/mL of human IgG1 myeloma plasma (Athens Research, No. 16-16-090707-1M) in FACS Buffer (PBS containing 2% FBS, 2 mM EDTA and 0.05% NaN₃) for 45 min to 1 h at 4° C. The immune cell phenotyping antibodies and indicated AlexaFluor647-labeled test antibodies were then added to the cells and incubated for 45 min to 1 h at 4° C.
Cells were washed 1× with PBS and stained with the Zombie Violet™ fixable viability dye for 15 min at RT for live cell discrimination. Cells were washed 1× with FACS Buffer, fixed, and acquired on a FACS Symphony cytometer (BD Biosciences). Data analysis was performed using the FlowJo software (v10.8.1). […]
On the technique in general: A flow cytometer gives signals particle by particle.

The target in test [2] is T2, human LILRB2 on cells (human, UniProt Q8N423 22-597).
T2 construct: whole, on cells; also called hLILRB2; LILRB2-HEK293T
Briefly: flow cytometry, LILRB2-HEK293T cells, AF647-labelled antibody. In outline:
(§1)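 Cells were blocked 30 min at 4° C in FACS buffer with 10% FBS and 0.5 mg/mL human IgG1. AF647-labelled antibodies were then bound for 1 h at 4° C. After Zombie Violet viability staining, binding was read by flow cytometry.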

Test [3] deals with T3, recombinant human LILRB2-His (human, UniProt Q8N423 22-461, limits assumed).
T3 construct: Bought protein; also called LILRB2 protein
Nature of the test: MSD ELISA, coated antigen, purified IgG1. In general terms: In an ELISA, binding on a coated surface is turned into a signal by an enzyme label.

In test [4] the target is T4, recombinant cynomolgus LILRB1 (cynomolgus).
T4 construct: Bought protein
Briefly: MSD ELISA, coated antigen, purified IgG1.

For test [5], the target named is T5, recombinant human LILRB1-His (human, UniProt Q8NHL6 24-458).
T5 construct: Bought protein; also called LILRB1 protein
Nature of the test: MSD ELISA, coated antigen, purified IgG1.

Test [6] concerns the target T1, human LILRB1 on cells. Briefly: flow cytometry, 721.221 cells, AF647-labelled antibody. In short, it runs like this:
as §1

Test [7] has as its target T6, human LILRB5 on HEK293-6E cells (human, UniProt O75023 24-590).
T6 construct: whole, on cells; also called hLILRB5
Nature of the test: flow cytometry, HEK293-6E transfectants. In outline:
(§2)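 Antibody binding measured by flow cytometry on HEK293-6E cells transiently transfected with individual human LILRB (1–5) or LILRA (1, 2, 4, 5, 6) plasmids. Antibodies tested at 1 μg/mL.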

For test [8], the target named is T7, human LILRA6 on HEK293-6E cells (human, UniProt Q6PI73 24-481).
T7 construct: whole, on cells; also called hLILRA6
Nature of the test: flow cytometry, HEK293-6E transfectants. In short, it runs like this:
as §2

The target of test [9] is T8, human LILRB4 on HEK293-6E cells (human, UniProt Q8NHJ6 22-448).
T8 construct: whole, on cells; also called hLILRB4
Nature of the test: flow cytometry, HEK293-6E transfectants. In outline:
as §2

Test [10] addresses T9, human LILRA2 on HEK293-6E cells (human, UniProt Q8N149 24-483).
T9 construct: whole, on cells; also called hLILRA2
Briefly: flow cytometry, HEK293-6E transfectants. In short, it runs like this: as §2

Test [11] has as its target T10, human LILRA4 on HEK293-6E cells (human, UniProt P59901 24-499).
T10 construct: whole, on cells; also called hLILRA4
Briefly: flow cytometry, HEK293-6E transfectants. In outline:
as §2

Test [12] addresses T11, human LILRA1 on HEK293-6E cells (human, UniProt O75019 17-489).
T11 construct: whole, on cells; also called hLILRA1
Briefly: flow cytometry, HEK293-6E transfectants. In short, it runs like this:
as §2

Test [13] has as its target T12, human LILRA5 on HEK293-6E cells (human, UniProt A6NI73 42-299).
T12 construct: whole, on cells; also called hLILRA5
Briefly: flow cytometry, HEK293-6E transfectants. In short, it runs like this:
as §2

Test [14] has as its target T2, human LILRB2 on cells. Briefly: flow cytometry, HEK293-6E transfectants. In outline: as §2
Test [15] has as its target T1, human LILRB1 on cells. Briefly: flow cytometry, HEK293-6E transfectants. In short, it runs like this:
as §2

For test [16], the target named is T13, human LILRB3 on HEK293-6E cells (human, UniProt O75022 24-631).
T13 construct: whole, on cells; also called hLILRB3
Nature of the test: flow cytometry, HEK293-6E transfectants. In short, it runs like this:
as §2

T12 sequence (A6NI73 42-299): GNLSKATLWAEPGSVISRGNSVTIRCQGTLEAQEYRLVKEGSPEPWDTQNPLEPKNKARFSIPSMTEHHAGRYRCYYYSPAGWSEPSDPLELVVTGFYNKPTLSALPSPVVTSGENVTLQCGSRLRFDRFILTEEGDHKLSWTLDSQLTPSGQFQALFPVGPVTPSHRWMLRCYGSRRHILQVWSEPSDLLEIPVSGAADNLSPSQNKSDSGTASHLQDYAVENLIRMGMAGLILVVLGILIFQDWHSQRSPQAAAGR
T11 sequence (O75019 17-489): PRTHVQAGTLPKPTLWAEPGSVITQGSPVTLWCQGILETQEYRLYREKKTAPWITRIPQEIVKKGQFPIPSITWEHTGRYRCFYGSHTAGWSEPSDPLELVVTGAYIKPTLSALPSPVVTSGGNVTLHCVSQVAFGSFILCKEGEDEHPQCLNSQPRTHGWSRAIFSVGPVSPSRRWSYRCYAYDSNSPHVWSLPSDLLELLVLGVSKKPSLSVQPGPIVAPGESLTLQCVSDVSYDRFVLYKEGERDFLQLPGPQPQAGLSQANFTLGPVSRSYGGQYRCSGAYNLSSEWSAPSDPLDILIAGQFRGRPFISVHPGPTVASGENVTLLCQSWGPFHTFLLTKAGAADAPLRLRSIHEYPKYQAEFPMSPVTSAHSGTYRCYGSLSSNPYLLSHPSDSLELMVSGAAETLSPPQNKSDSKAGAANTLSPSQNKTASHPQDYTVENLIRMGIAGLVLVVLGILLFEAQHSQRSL
T6 sequence (O75023 24-590): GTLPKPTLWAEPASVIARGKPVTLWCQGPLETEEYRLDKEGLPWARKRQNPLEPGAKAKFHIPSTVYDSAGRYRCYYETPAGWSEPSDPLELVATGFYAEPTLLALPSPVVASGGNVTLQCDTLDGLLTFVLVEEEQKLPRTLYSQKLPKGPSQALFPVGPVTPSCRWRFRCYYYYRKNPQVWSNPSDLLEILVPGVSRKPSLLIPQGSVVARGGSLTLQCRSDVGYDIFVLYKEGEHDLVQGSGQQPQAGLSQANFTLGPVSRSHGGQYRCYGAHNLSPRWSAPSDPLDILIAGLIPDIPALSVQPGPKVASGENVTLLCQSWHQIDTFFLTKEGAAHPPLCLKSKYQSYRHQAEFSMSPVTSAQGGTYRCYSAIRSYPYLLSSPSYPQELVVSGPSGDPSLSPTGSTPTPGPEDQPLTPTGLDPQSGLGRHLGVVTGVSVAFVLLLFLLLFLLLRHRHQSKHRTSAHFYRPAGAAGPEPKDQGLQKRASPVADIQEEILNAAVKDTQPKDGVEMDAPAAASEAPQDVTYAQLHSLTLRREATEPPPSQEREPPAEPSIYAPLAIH
T13 sequence (O75022 24-631): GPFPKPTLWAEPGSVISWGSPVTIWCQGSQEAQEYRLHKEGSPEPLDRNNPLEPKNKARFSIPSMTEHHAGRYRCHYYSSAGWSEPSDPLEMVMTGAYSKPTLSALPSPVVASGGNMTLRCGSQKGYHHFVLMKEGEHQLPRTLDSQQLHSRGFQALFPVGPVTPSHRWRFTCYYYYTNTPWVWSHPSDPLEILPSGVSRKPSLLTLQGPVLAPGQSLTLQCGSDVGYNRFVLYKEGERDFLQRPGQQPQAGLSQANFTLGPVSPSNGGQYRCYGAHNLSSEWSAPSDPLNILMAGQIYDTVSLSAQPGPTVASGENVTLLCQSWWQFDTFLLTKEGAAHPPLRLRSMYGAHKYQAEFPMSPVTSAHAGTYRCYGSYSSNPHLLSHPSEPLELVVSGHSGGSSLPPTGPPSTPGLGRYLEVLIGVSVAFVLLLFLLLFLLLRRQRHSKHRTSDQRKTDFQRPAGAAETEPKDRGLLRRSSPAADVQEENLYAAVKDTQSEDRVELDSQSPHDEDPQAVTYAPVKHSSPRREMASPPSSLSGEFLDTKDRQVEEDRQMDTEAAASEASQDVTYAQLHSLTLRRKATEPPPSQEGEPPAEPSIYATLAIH
T3 sequence (Q8N423 22-461 limits assumed): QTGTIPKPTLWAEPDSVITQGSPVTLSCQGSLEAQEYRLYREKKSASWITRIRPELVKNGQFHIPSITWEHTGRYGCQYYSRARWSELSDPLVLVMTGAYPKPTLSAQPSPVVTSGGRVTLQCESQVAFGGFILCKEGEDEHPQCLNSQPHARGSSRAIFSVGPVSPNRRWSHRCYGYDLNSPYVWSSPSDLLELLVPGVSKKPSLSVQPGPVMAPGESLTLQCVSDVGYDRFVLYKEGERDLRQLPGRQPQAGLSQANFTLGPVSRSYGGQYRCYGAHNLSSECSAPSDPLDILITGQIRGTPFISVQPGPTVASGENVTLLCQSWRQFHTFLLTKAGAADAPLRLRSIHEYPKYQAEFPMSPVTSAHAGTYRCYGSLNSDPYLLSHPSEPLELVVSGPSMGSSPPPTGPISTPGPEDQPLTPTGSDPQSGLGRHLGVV
T5 sequence (Q8NHL6 24-458 limits assumed): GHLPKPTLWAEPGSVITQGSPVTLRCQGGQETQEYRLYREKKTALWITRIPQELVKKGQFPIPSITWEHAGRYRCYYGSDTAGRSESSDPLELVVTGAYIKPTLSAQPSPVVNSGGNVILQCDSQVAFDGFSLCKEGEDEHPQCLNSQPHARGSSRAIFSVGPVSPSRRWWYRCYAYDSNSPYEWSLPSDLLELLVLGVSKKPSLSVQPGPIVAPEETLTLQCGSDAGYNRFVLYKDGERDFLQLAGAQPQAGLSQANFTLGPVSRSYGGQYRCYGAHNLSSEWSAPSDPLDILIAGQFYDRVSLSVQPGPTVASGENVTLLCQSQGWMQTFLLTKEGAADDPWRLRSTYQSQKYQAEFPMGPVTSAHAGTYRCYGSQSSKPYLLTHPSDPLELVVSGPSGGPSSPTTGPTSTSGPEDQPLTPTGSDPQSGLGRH
T10 sequence (P59901 24-499): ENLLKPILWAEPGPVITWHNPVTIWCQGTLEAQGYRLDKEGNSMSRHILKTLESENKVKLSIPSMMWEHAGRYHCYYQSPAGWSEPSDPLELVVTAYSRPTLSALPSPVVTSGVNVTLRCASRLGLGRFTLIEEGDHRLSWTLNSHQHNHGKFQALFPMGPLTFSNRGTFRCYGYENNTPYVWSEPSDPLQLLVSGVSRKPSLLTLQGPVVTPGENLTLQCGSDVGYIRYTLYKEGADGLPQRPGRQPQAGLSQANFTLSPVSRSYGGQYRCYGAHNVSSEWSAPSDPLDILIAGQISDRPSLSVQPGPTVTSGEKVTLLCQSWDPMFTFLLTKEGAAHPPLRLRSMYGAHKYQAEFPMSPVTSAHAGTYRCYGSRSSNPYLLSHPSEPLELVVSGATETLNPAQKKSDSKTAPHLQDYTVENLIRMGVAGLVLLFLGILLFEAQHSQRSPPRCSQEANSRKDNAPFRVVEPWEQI
T9 sequence (Q8N149 24-483): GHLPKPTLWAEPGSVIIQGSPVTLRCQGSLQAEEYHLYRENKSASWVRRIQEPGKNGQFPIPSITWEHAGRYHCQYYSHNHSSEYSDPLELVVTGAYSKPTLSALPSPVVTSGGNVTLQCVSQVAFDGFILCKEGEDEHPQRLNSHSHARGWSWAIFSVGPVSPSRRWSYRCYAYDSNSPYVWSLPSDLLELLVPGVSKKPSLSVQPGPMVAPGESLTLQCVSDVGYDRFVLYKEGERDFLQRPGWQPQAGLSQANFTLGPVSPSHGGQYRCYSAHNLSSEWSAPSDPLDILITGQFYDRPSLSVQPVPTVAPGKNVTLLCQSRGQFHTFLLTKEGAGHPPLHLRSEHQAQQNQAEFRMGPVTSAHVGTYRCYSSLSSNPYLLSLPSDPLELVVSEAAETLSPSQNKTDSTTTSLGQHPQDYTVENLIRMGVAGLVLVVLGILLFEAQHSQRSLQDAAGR
T7 sequence (Q6PI73 24-481): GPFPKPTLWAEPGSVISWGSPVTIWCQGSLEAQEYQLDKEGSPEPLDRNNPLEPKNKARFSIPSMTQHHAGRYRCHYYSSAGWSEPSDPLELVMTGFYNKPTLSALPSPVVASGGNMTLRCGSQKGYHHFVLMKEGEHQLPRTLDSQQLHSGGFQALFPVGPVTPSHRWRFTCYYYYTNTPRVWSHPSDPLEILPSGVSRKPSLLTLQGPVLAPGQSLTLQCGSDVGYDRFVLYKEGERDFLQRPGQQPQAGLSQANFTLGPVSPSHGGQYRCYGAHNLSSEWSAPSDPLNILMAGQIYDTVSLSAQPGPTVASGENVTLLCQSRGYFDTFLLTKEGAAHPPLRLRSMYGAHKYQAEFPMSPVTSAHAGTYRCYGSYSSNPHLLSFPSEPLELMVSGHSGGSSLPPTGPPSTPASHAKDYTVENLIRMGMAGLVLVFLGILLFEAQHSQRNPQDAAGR
T1 sequence (Q8NHL6 24-650): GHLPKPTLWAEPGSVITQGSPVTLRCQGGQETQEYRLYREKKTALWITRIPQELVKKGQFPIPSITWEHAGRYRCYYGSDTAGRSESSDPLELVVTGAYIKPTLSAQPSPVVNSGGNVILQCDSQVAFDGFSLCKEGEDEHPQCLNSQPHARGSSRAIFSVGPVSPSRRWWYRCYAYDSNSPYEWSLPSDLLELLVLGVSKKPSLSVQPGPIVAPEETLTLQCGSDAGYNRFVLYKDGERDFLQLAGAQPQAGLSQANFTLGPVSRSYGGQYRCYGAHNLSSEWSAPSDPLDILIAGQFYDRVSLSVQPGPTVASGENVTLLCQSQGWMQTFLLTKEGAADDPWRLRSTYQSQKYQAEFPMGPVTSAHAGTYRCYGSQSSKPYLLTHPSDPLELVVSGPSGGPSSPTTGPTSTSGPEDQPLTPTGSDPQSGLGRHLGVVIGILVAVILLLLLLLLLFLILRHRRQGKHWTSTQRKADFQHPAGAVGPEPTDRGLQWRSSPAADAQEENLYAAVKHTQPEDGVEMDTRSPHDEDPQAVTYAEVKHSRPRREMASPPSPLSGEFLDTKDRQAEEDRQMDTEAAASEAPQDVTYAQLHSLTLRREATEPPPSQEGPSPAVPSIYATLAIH

B1: Comp 1 (anti-LILRB1 antibody) (antibody, human IgG1, kappa, V domains shown)
VH: QVQLKESGPGLVAPSQSLSITCTVSGFSLTNYGVSWVRQPPGKGLEWLGIIWGDGSTNYHSALISRLSISKDNSKSQVFLKLNSLQADDTATYYCAKPNWDTYAMDFWGQGTSVTVSS
VL: DIQMTQTTSSLSASLGDRVTISCRASQDISNFLNWYQQKPDGTVKLLIYCTSKLHSGVPSRFSGSGSETDYSLTISNLEQEDIATYFCQQGNTLPPTFGGGTKLEIIR
For the molecule B1, the binding result with human LILRB1 on cells [1] is reported as “binds”.

B2: B21H1-55 (antibody, human IgG1, kappa)
heavy: not shown
light: DIQMTQTPSTVEASVGGTVTITCQASGNIYSFLAWYQQKPGQPPKLLIYTASNLETGVPSRFSGSGSGTEYTLTISGLQSDDAATYYCLGGLYSSDVSYAFGGGTEVVVKRTVAAPSVFIFPPSDEQLKSGTASVVCLLNNFYPREAKVQWKVDNALQSGNSQESVTEQDSKDSTYSLSSTLTLSKADYEKHKVYACEVTHQGLSSPVTKSFNRGEC
notes: humanized IgG1/kappa, VH5+VL5
Regarding B2, the EC50 is 0.00071 µg/mL with human LILRB2 on cells [2]; 0.0369 µg/mL in [3]; 0.25 µg/mL in test [4]; 0.00944 µg/mL in test [5]; 0.0507 µg/mL in the test with human LILRB1 on cells [6]. Moreover, the MFI in test [7] was 94.8 MFI; in [8] it was 148 MFI; in test [9], 33.5 MFI; in test [10], 27.9 MFI; in test [11] it was 144 MFI; in [12], 332 MFI. Besides, the MFI in [13] came to 77.4 MFI; with human LILRB2 on cells [14] it was 4120 MFI; with human LILRB1 on cells [15], 1030 MFI; in test [16], 108 MFI. Further, the binding result in test [7], in test [8], in [9], in test [10], in [11] and in test [12] was “no binding (tested: 1 µg/mL)” each time. Also, the binding result in test [13] and in [16] was “no binding (tested: 1 µg/mL)” throughout.

B3: B21H1-14 (antibody, human IgG1, kappa)
heavy: not shown
light: DVVMTQSPSTVSASVGDRVTLTCQASGNIYSFLAWYQQKPGQPPKLLIYTASNLETGVPDRFSGSGSGTDYTLTISSLQADDFATYYCLGGLYSSDVSYAFGQGTKVEIKRTVAAPSVFIFPPSDEQLKSGTASVVCLLNNFYPREAKVQWKVDNALQSGNSQESVTEQDSKDSTYSLSSTLTLSKADYEKHKVYACEVTHQGLSSPVTKSFNRGEC
notes: humanized IgG1/kappa, VH1+VL4
Regarding B3, the 50% effective concentration (EC50) with human LILRB2 on cells [2] is 0.0011 µg/mL; in test [3] it was 0.0187 µg/mL; in test [4], 0.45 µg/mL; in [5], 0.00593 µg/mL; with human LILRB1 on cells [6] it was 0.0552 µg/mL. Also, the MFI amounted to 93.3 MFI in [7]; 151 MFI in [8]; 33.5 MFI in test [9]; 28.6 MFI in test [10]; 140 MFI in test [11]; 249 MFI in test [12]. Moreover, the MFI is 78.3 MFI in test [13], 5760 MFI with human LILRB2 on cells [14], 988 MFI with human LILRB1 on cells [15] and 104 MFI in test [16]. Moreover, the binding result in [7], in [8], in test [9], in test [10], in [11] and in test [12] was “no binding (tested: 1 µg/mL)” throughout. In addition, the binding result in [13] and in test [16] was “no binding (tested: 1 µg/mL)” each time.

B4: Comp 3 (antibody, human IgG1, kappa, N297G, V domains shown)
VH: QVQLVQSGAEVKKPGASVKVSCKASGYTFTDYYINWVRQAPGQGLEWMGNVNPNDGGTTYNQKFKGRVTMTTDTSTSTAYMELRSLRSDDTAVYYCARREIYFYGTIYYYAMDYWGQGTLVTVSS
VL: DIQLTQSPSFLSASVGDRVTITCRASESVDYYGNSFMYWYQQKPGKAPKLLIYFASNLESGVPSRFSGSGSGTEFTLTISSLQPEDFATYYCQQNNEDPWTFGGGTKVEIKR
notes: The text says 'a LILRB2/1 antibody (Comp 3); also called comparator LILRB2/1 antibody
Consider B4, for which the binding result with human LILRB1 on cells [1] is reported as “binds”.

B5: B21H1-32 (antibody, human IgG1, kappa)
heavy: not shown
light: DIQMTQSPSSLSASVGDRVTITCQASGNIYSFLAWYQQKPGKVPKLLIYTASNLETGVPSRFSGSGSGTDYTLTISSLQSEDAATYYCLGGLYSSDVSYAFGGGTKVVIKRTVAAPSVFIFPPSDEQLKSGTASVVCLLNNFYPREAKVQWKVDNALQSGNSQESVTEQDSKDSTYSLSSTLTLSKADYEKHKVYACEVTHQGLSSPVTKSFNRGEC
notes: humanized IgG1/kappa, VH3+VL2
Turning to B5, the concentration for a half-maximal effect (EC50) came to 0.00123 µg/mL with human LILRB2 on cells [2]; 0.0219 µg/mL in [3]; 0.272 µg/mL in test [4]; 0.00646 µg/mL in [5]; 0.0518 µg/mL in the test with human LILRB1 on cells [6]. In addition, the MFI in [7] turned out to be 87.9 MFI; in [8] it was 142 MFI; in test [9] it was 28.8 MFI; in test [10], 27.8 MFI; in [11], 126 MFI; in test [12], 249 MFI. Moreover, the MFI in test [13] turned out to be 74 MFI; with human LILRB2 on cells [14], 5460 MFI; in the test with human LILRB1 on cells [15] it was 1040 MFI; in test [16] it was 99.2 MFI. In addition, the binding result in test [7], in test [8], in test [9], in test [10], in [11] and in [12] was “no binding (tested: 1 µg/mL)” in each case. In addition, the binding result in [13] and in test [16] was “no binding (tested: 1 µg/mL)” each time.

The values above are taken from patent US20250002577A1 (ONCORESPONSE, published 2025).
